Laboratory results: patent US8703143

Tests used:
[1] = molecular target: human plasma fibronectin (human) (UniProt P02751); experiment: ELISA on coated antigen, background subtracted
[2] = molecular target: large isoform of tenascin-C (UniProt P24821); experiment: ELISA on coated antigen, background subtracted
Sequence of large isoform of tenascin-C (P24821 23-2201): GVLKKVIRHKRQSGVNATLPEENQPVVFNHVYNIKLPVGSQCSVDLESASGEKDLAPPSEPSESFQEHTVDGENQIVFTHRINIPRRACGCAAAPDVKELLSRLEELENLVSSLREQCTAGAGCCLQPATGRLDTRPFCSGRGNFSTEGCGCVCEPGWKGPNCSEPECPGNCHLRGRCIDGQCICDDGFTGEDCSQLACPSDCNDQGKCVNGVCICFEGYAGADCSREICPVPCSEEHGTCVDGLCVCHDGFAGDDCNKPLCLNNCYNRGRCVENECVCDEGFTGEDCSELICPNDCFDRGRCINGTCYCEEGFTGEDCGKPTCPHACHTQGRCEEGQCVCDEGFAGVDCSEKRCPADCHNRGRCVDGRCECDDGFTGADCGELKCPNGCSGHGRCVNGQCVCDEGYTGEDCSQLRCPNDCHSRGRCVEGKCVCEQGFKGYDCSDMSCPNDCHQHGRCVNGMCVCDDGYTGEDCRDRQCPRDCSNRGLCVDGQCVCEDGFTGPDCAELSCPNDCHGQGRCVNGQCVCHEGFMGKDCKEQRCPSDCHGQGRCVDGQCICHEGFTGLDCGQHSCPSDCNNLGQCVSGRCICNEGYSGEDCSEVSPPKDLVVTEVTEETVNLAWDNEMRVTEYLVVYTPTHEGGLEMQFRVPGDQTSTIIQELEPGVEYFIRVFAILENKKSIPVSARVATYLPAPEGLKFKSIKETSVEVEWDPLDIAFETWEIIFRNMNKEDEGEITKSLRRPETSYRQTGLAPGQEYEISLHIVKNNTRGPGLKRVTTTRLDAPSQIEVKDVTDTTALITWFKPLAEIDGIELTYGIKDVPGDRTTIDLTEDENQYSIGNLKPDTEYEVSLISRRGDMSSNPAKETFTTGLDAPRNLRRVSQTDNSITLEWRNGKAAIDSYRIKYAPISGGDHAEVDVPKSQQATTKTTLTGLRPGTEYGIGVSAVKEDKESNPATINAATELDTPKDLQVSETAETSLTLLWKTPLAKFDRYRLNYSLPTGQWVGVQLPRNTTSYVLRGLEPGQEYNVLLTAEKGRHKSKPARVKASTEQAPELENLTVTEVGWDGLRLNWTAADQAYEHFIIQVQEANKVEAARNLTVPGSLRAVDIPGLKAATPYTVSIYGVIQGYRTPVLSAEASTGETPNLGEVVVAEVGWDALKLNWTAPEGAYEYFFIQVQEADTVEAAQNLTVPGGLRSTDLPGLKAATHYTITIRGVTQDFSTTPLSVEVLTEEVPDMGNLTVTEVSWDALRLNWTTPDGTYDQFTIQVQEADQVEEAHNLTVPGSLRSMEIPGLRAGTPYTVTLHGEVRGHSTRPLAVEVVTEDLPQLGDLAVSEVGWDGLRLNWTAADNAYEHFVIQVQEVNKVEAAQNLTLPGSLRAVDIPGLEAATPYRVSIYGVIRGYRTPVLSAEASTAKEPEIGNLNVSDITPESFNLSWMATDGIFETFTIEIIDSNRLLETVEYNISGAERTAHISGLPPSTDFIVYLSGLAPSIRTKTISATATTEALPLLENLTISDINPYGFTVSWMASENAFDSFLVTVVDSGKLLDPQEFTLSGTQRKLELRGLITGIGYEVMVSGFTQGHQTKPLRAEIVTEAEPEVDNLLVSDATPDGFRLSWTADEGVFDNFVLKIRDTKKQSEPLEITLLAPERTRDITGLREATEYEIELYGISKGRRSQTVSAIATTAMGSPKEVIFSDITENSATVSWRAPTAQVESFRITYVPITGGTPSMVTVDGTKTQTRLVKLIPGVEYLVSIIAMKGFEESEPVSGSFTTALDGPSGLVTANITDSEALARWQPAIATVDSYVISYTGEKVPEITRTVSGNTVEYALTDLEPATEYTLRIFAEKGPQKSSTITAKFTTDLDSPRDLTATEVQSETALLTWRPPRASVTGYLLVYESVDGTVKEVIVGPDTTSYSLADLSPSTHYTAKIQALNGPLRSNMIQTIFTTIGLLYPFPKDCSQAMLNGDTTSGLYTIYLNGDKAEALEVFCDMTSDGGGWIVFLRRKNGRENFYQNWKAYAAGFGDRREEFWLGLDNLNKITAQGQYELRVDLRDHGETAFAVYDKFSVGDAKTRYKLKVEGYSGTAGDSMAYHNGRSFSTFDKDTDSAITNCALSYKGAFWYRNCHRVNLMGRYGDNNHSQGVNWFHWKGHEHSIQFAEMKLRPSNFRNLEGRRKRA

OD at 405 nm [1]: 0.07 OD 405 nm
OD at 405 nm [2]: 0.01 OD 405 nm
B1: scFv CGS-1 (scFv, V domains shown)
VH: QVQLVESGGGLVQPGGSLRLSCAVSGFTFSSYAMSWVRQAPGKGLEWVSAISGSGGSTYYADSVKGRFTISRDNSKNTLYLQMNSLRAEDTAVYYCARSLPKWGQGTLVTVSR
VL: SSELTQDPAVSVALGQTVRITCQGDSLRSYYASWYQQKPGQAPVLVTYGKNNRPSGIPDRFSGSSSGNTASLTITGAQAEDEADYYCNSSPVVLNGVVFGGGTKLTVL
